We go through five sequences from the supplement of paper PMC5998384.

In data set [1] the test system is HeLa Kyoto. Briefly: solubility in G1/S (NP-40 vs SDS abundance) (log2 ratio); higher = more soluble. As to conditions: cell cycle stage: G1/S.
Data set [2] has as its system HeLa Kyoto. Briefly: solubility change mitosis vs G1/S (difference of NP-40 vs SDS log2 ratios) (log2 ratio difference); higher = more soluble in mitosis.
Data set [3] relates to HeLa Kyoto. Briefly: thermal stability score vs G1/S (z-score of summed log2 fold changes over temperatures); higher = more thermally stable than in G1/S.
Data set [4] deals with HeLa Kyoto. Description: melting temperature (median over replicates), in situ; higher = more thermally stable.
Setting [5] is: cell cycle stage: early G1 (4.5 h after nocodazole release).
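For melting temperature (median over replicates), in situ in this document: HeLa Kyoto cells synchronized by double thymidine or nocodazole block, proteins quantified by TMT10plex mass spectrometry, three independent biological replicates.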
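For solubility change mitosis vs G1/S (difference of NP-40 vs SDS log2 ratios) in this document: synchronized HeLa Kyoto cells (double thymidine block for G1/S, nocodazole release for mitosis), protein amounts in NP-40 versus SDS lysates quantified by mass spectrometry, three biological replicates.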
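For solubility in G1/S (NP-40 vs SDS abundance) in this document: HeLa Kyoto cells arrested at G1/S by double thymidine block, proteins quantified by TMT10plex mass spectrometry in mild NP-40 versus SDS extracts, three biological replicates.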
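For thermal stability score vs G1/S (z-score of summed log2 fold changes over temperatures) in this document: synchronized HeLa Kyoto cells, proteins quantified by TMT10plex mass spectrometry, three biological replicates, mitosis taken 0.5 h after nocodazole release, G1/S directly after double thymidine block.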

Take “MACPALGLEALQPLQPEPPPEPAFSEAQKWIEQVTGRSFGDKDFRTGLENGILLCELLNAIKPGLVKKINRLPTPIAGLDNIILFLRGCKELGLKESQLFDPSDLQDTSNRVTVKSLDYSRKLKNVLVTIYWLGKAANSCTSYSGTTLNLKEFEGLLAQMRKDTDDIESPKRSIRDSGYIDCWDSERSDSLSPPRHGRDDSFDSLDSFGSRSRQTPSPDVVLRGSSDGRGSDSESDLPHRKLPDVKKDDMSARRTSHGEPKSAVPFNQYLPNKSNQTAYVPAPLRKKKAEREEYRKSWSTATSPLGGERPFRYGPRTPVSDDAESTSMFDMRCEEEAAVQPHSRARQEQLQLINNQLREEDDKWQDDLARWKSRRRSVSQDLIKKEEERKKMEKLLAGEDGTSERRKSIKTYREIVQEKERRERELHEAYKNARSQEEAEGILQQYIERFTISEAVLERLEMPKILERSHSTEPNLSSFLNDPNPMKYLRQQSLPPPKFTATVETTIARASVLDTSMSAGSGSPSKTVTPKAVPMLTPKPYSQPKNSQDVLKTFKVDGKVSVNGETVHREEEKERECPTVAPAHSLTKSQMFEGVARVHGSPLELKQDNGSIEINIKKPNSVPQELAATTEKTEPNSQEDKNDGGKSRKGNIELASSEPQHFTTTVTRCSPTVAFVEFPSSPQLKNDVSEEKDQKKPENEMSGKVELVLSQKVVKPKSPEPEATLTFPFLDKMPEANQLHLPNLNSQVDSPSSEKSPVMTPQFKFWAWDPEEERRRQEKWQQEQERLLQERYQKEQDKLKEEWEKAQKEVEEEERRYYEEERKIIEDTVVPFTVSSSSADQLSTSSSMTEGSGTMNKIDLGNCQDEKQDRRWKKSFQGDDSDLLLKTRESDRLEEKGSLTEGALAHSGNPVSKGVHEDHQLDTEAGAPHCGTNPQLAQDPSQNQQTSNPTHSSEDVKPKTLPLDKSINHQIESPSERRKKSPREHFQAGPFSPCSPTPPGQSPNRSISGKKLCSSCGLPLGKGAAMIIETLNLYFHIQCFRCGICKGQLGDAVSGTDVRIRNGLLNCNDCYMRSRSAGQPTTL [LIMCH1]”: in data set [1], the “solubility in G1/S (log2)” value amounted to 0.188. Further, the “solubility change mitosis (log2)” value in data set [2] was -0.237. The thermal stability score came to 4.62 in data set [3] (setting [5]) and 6.09 in data set [3] (cell cycle stage: mitosis). The melting temperature in data set [4] (cell cycle stage: G1/S) came to 51.2 °C; in data set [4] (cell cycle stage: mitosis), 52 °C.
Turning to “MADAAPQLGKRKRELDVEEAHAASTEEKEAGVGNGTCAPVRLPFSGFRLQKVLRESARDKIIFLHGKVNEASGDGDGEDAVVILEKTPFQVEQVAQLLTGSPELQLQFSNDIYSTYHLFPPRQLNDVKTTVVYPATEKHLQKYLRQDLRLIRETGDDYRNITLPHLESQSLSIQWVYNILDKKAEADRIVFENPDPSDGFVLIPDLKWNQQQLDDLYLIAICHRRGIRSLRDLTPEHLPLLRNILHQGQEAILQRYRMKGDHLRVYLHYLPSYYHLHVHFTALGFEAPGSGVERAHLLAEVIENLECDPRHYQQRTLTFALRADDPLLKLLQEAQQS [DCPS]”, the “solubility in G1/S (log2)” value in data set [1] was 0.263. Moreover, the “solubility change mitosis (log2)” value in data set [2] was -0.0249. Besides, the thermal stability score was -0.562 in data set [3] (setting [5]) and -3.36 in data set [3] (cell cycle stage: mitosis). Further, the melting temperature in data set [4] (cell cycle stage: G1/S) stood at 56.3 °C; in data set [4] (cell cycle stage: mitosis), 55.7 °C.
Regarding “MADEALAGLDEGALRKLLEVTADLAERRRIRSAIRELQRQELEREEEALASKRFRAERQDNKENWLHSQQREAEQRAALARLAGQLESMNDVEELTALLRSAGEYEERKLIRAAIRRVRAQEIEAATLAGRLYSGRPNSGSREDSKGLAAHRLEQCEVPEREEQEQQAEVSKPTPTPEGTSQDVTTVTLLLRAPPGSTSSSPASPSSSPTPASPEPPLEPAEAQCLTAEVPGSPEPPPSPPKTTSPEPQESPTLPSTEGQVVNKLLSGPKETPAAQSPTRGPSDTKRADVAGPRPCQRSLSVLSPRQPAQNRESTPLASGPSSFQRAGSVRDRVHKFTSDSPMAARLQDGTPQAALSPLTPARLLGPSLTSTTPASSSSGSSSRGPSDTSSRFSKEQRGVAQPLAQLRSCPQEEGPRGRGLAARPLENRAGGPVARSEEPGAPLPVAVGTAEPGGSMKTTFTIEIKDGRGQASTGRVLLPTGNQRAELTLGLRAPPTLLSTSSGGKSTITRVNSPGTLARLGSVTHVTSFSHAPPSSRGGCSIKMEAEPAEPLAAAVEAANGAEQTRVNKAPEGRSPLSAEELMTIEDEGVLDKMLDQSTDFEERKLIRAALRELRQRKRDQRDKERERRLQEARGRPGEGRGNTATETTTRHSQRAADGSAVSTVTKTERLVHSNDGTRTARTTTVESSFVRRSENGSGSTMMQTKTFSSSSSSKKMGSIFDREDQASPRAGSLAALEKRQAEKKKELMKAQSLPKTSASQARKAMIEKLEKEGAAGSPGGPRAAVQRSTSFGVPNANSIKQMLLDWCRAKTRGYEHVDIQNFSSSWSDGMAFCALVHNFFPEAFDYGQLSPQNRRQNFEVAFSSAEMLVDCVPLVEVDDMMIMGKKPDPKCVFTYVQSLYNHLRRHELRLRGKNV [SMTN]”, the “solubility in G1/S (log2)” value in data set [1] is -0.058. Besides, the “solubility change mitosis (log2)” value in data set [2] came to 0.208. Moreover, the figures for the thermal stability score in data set [3] (setting [5]) and in data set [3] (cell cycle stage: mitosis) were 0.326 and 0.869, respectively. Besides, the melting temperature in data set [4] (cell cycle stage: G1/S) was determined as 48.9 °C; in data set [4] (cell cycle stage: mitosis) it was 50 °C.
For the sequence “MADGEEPEKKRRRIEELLAEKMAVDGGCGDTGDWEGRWNHVKKFLERSGPFTHPDFEPSTESLQFLLDTCKVLVIGAGGLGCELLKNLALSGFRQIHVIDMDTIDVSNLNRQFLFRPKDIGRPKAEVAAEFLNDRVPNCNVVPHFNKIQDFNDTFYRQFHIIVCGLDSIIARRWINGMLISLLNYEDGVLDPSSIVPLIDGGTEGFKGNARVILPGMTACIECTLELYPPQVNFPMCTIASMPRLPEHCIEYVRMLQWPKEQPFGEGVPLDGDDPEHIQWIFQKSLERASQYNIRGVTYRLTQGVVKRIIPAVASTNAVIAAVCATEVFKIATSAYIPLNNYLVFNDVDGLYTYTFEAERKENCPACSQLPQNIQFSPSAKLQEVLDYLTNSASLQMKSPAITATLEGKNRTLYLQSVTSIEERTRPNLSKTLKELGLVDGQELAVADVTTPQTVLFKLHFTS [UBA3]”, in data set [1], the “solubility in G1/S (log2)” value was determined as 0.115. Further, the “solubility change mitosis (log2)” value in data set [2] is -0.178. Further, the thermal stability score came to 1.23 in data set [3] (setting [5]) and 1.76 in data set [3] (cell cycle stage: mitosis). Besides, the melting temperature in data set [4] (cell cycle stage: G1/S) was 51.8 °C; in data set [4] (cell cycle stage: mitosis), 51.5 °C.
As for “MADGKAGDEKPEKSQRAGAAGGPEEEAEKPVKTKTVSSSNGGESSSRSAEKRSAEEEAADLPTKPTKISKFGFAIGSQTTKKASAISIKLGSSKPKETVPTLAPKTLSVAAAFNEDEDSEPEEMPPEAKMRMKNIGRDTPTSAGPNSFNKGKHGFSDNQKLWERNIKSHLGNVHDQDN [PCNP]”, the “solubility in G1/S (log2)” value in data set [1] stood at 0.559. Besides, in data set [2], the “solubility change mitosis (log2)” value came to 0.0732. The thermal stability score was -1.76 in data set [3] (setting [5]) and -6.06 in data set [3] (cell cycle stage: mitosis). Besides, the melting temperature was found to be 59.4 °C in data set [4] (cell cycle stage: G1/S) and 53.8 °C in data set [4] (cell cycle stage: mitosis).
